B1: fluoresceinated MERS2 peptide F-SVSKQAVCLMERHLRRVPGARRNELKVALSKELKER [modified: fluorescein (F-) printed at the N-terminus; fluorescein (F-) printed at the N-terminus] [T. brucei] / T. brucei MERS1(37–395), his-tagged [Trypanosoma brucei … (parent complex)
chain 1: SVSKQAVCLMERHLRRVPGARRNELKVALSKELKER
chain 2: LVPRGSMDDALRGELASALDTEGHALPFDVHLQQPHSSGDGTAGDTSTIQLEKLSHPPARFDLLTNSFVYKWQTKAALARKVSGPMREWAAELKYRTGVHIELEPTYPERLSENAVKGSGSDDGDGTQWGAYETADDVDITVYLFGSERGIFNCHKLMEAAIQQDPVYVRLGIFRRLANSSEVEWLMLRRINRELRPPDIPPISLKLPGKWTLLYERYKEAAIRTLWEETGITVDASNVYPTGHLYQTVPQYYWRVPVRYFVAEVPSDIRVEGPQVVPLQYMRNWDARLLRQSPDPIDRAWAQLADPATGCAWMKASMIDQLQKPLRGDNYMAIRYTPPPYSNLQEVVGLGDGSITPSTGNGEDAS

Variants of: B1
Assay: fluorescence polarization; value read at the highest MERS1 concentration point, about 13.3 µM (estimated from the x axis); parent: 53; read off a plot

Row | Variant | response [mP]
1 | chain 1 SVSKQAVCLMERHLRRVPGARRNELKVAPSKPLKER | ~21
